Substrate in this series: NC(=O)c1ccc[n+]([C@@H]2O[C@H](COP(=O)([O-])OP(=O)(O)OC[C@H]3O[C@@H](n4cnc5c4ncn4ccnc54)[C@H](O)[C@@H]3O)[C@@H](O)[C@H]2O)c1
As to the kind of experiment: purified protein. The format is biochemical, Gallus gallus. The settings on record: poly-L-arginine 1 mg/ml as acceptor, PBS pH 7.4, room temperature, glycosylated protein (no PNGase F).

The results in this text go back to paper PMC2576468, “The orthologue of the "acatalytic" mammalian ART4 in chicken is an arginine-specific mono-ADP-ribosyltransferase” (BMC Molecular Biology, 2008).

B1: recombinant chicken ART4 (chART4) (Gallus gallus) (protein)
chain: SHLMMDMALHSFDDQYLGCREQMMEELERGDYFQKEIAANKNYSSLWKKAQEALLKSSVGLLREMHDSHATALMAYTMNSSLHSQLNWATSTAGRSPEQYRHNFSFKYFHFYLTTAIQIMKQWQSSKDNVRKRHCYRVHRGVKDLYIKATVGSIVRFGRFTSTSCLWNEAQKFGNETLFTVTTCLGAAMQGFSYYTSEKEVLIPPYEIFLVKNFFRTRRGNRLHLHSVGNYSKYHYQLLEASRIKNGGSTA
notes: N-glycosylated
For B1, the Michaelis-Menten constant (Km) (commonly the substrate concentration at which the rate is half of its maximum) amounted to 1.0 ± 0.18 µM.
